B1: TRIM55 (parent)
chain: ICPICLEMFTKPVVILPCQHNLCR

Variants of: B1
Experiment: protein stability index of a GFP-peptide fusion (GPS, HEK-293T) (PSI 1-6); higher = more stable
Settings: c terminus: a fixed tail appended
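Further: lentivirally expressed fusions sorted by FACS into six bins by GFP to DsRed ratio, PSI derived from sequencing read proportions per bin multiplied by bin number.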

| Variant | protein stability index |
| --- | --- |
| ICPICLEMFTKPVVILCCQHNLCR [P17C] | 1.8 |
| ICPICLEMFTKPVCILPCQHNLCR [V14C] | 2.32 |
| ICPICLEMFTKPVYILPCQHNLCR [V14Y] | 2.15 |
| ICPICLEMFTKPVTILPCQHNLCR [V14T] | 2.63 |
| ICPICLEMFTKPVPILPCQHNLCR [V14P] | 2.56 |
| ICPICLEMFTKPVLILPCQHNLCR [V14L] | 2.29 |
| ICPICLEMFTKPVHILPCQHNLCR [V14H] | 2.82 |
| ICPICLEMFTKPVAILPCQHNLCR [V14A] | 2.56 |
| ICPICLEMFTKPVDILPCQHNLCR [V14D] | 3.31 |
| ICPICLEMFTKPVFILPCQHNLCR [V14F] | 2.49 |
| ICPICLEMFTKPVIILPCQHNLCR [V14I] | 2.4 |
| ICPICLEMFTKPVRILPCQHNLCR [V14R] | 2.47 |
| ICPICLEMFTKPVGILPCQHNLCR [V14G] | 2.54 |
| ICPICLEMFTKPVWILPCQHNLCR [V14W] | 1.89 |
| ICPICLEMFTKPVKILPCQHNLCR [V14K] | 2.33 |
| ICPICLEMFTKPVMILPCQHNLCR [V14M] | 2.98 |
| ICPICLEMFTKPVEILPCQHNLCR [V14E] | 3.02 |
| ICPICLEMFTKPVQILPCQHNLCR [V14Q] | 2.59 |
| ICPICLEMFTKPVNILPCQHNLCR [V14N] | 2.93 |
| ICPICLEMFTKPVSILPCQHNLCR [V14S] | 3.12 |
| ICPICLEMFTKPVVILPGQHNLCR [C18G] | 2.26 |
| ICPICLEMFTKPVVILPKQHNLCR [C18K] | 1.89 |
| ICPICLEMFTKPVVILPVQHNLCR [C18V] | 1.91 |
| ICPICLEMFTKPVVILPLQHNLCR [C18L] | 1.77 |

| Variant | protein stability index |
| --- | --- |
| ICPICLEMFTKPVVILPHQHNLCR [C18H] | 2.27 |
| ICPICLEMFTKPVVILPDQHNLCR [C18D] | 2.53 |
| ICPICLEMFTKPVVILPQQHNLCR [C18Q] | 2.19 |
| ICPICLEMFTKPVVILPIQHNLCR [C18I] | 2.02 |
| ICPICLEMFTKPVVILPYQHNLCR [C18Y] | 1.79 |
| ICPICLEMFTKPVVILPNQHNLCR [C18N] | 1.81 |
| ICPICLEMFTKPVVILPRQHNLCR [C18R] | 1.45 |
| ICPICLEMFTKPVVILPEQHNLCR [C18E] | 2.48 |
| ICPICLEMFTKPVVILPAQHNLCR [C18A] | 1.75 |
| ICPICLEMFTKPVVILPMQHNLCR [C18M] | 2.16 |
| ICPICLEMFTKPVVILPFQHNLCR [C18F] | 1.89 |
| ICPICLEMFTKPVVILPPQHNLCR [C18P] | 2.11 |
| ICPICLEMFTKPVVILPWQHNLCR [C18W] | 1.95 |
| ICPICLEMFTKPVVILPSQHNLCR [C18S] | 2.23 |
| ICPICLEMFTKPVVILPTQHNLCR [C18T] | 1.98 |
| ICPICLEMFTKPEVILPCQHNLCR [V13E] | 2.61 |
| ICPICLEMFTKPIVILPCQHNLCR [V13I] | 2.11 |
| ICPICLEMFTKPLVILPCQHNLCR [V13L] | 2.26 |
| ICPICLEMFTKPYVILPCQHNLCR [V13Y] | 1.99 |
| ICPICLEMFTKPMVILPCQHNLCR [V13M] | 2.33 |
| ICPICLEMFTKPGVILPCQHNLCR [V13G] | 2.84 |
| ICPICLEMFTKPKVILPCQHNLCR [V13K] | 2.15 |
| ICPICLEMFTKPQVILPCQHNLCR [V13Q] | 3.49 |
| ICPICLEMFTKPPVILPCQHNLCR [V13P] | 2.23 |

| Variant | protein stability index |
| --- | --- |
| ICPICLEMFTKPHVILPCQHNLCR [V13H] | 2.63 |
| ICPICLEMFTKPNVILPCQHNLCR [V13N] | 2.92 |
| ICPICLEMFTKPFVILPCQHNLCR [V13F] | 2.31 |
| ICPICLEMFTKPRVILPCQHNLCR [V13R] | 2.19 |
| ICPICLEMFTKPTVILPCQHNLCR [V13T] | 2.62 |
| ICPICLEMFTKPSVILPCQHNLCR [V13S] | 2.58 |
| ICPICLEMFTKPWVILPCQHNLCR [V13W] | 1.89 |
| ICPICLEMFTKPVVILPCQHNLAR [C23A] | 1.72 |
| ICPICLEMFTKPVVILPCQHQLCR [N21Q] | 2.17 |
| ICPICLEMFTKPVVILPCQHTLCR [N21T] | 2.39 |
| ICPICLEMFTKPVVILPCQHVLCR [N21V] | 2.35 |
| ICPICLEMFTKPVVILPCQHHLCR [N21H] | 2.39 |
| ICPICLEMFTKPVVILPCQHLLCR [N21L] | 2.01 |
| ICPICLEMFTKPVVILPCQHALCR [N21A] | 2.73 |
| ICPICLEMFTKPVVILPCQHILCR [N21I] | 2.04 |
| ICPICLEMFTKPVVILPCQHYLCR [N21Y] | 2.48 |
| ICPICLEMFTKPVVILPCQHGLCR [N21G] | 2.71 |
| ICPICLEMFTKPVVILPCQHKLCR [N21K] | 1.74 |
| ICPICLEMFTKPVVILPCQHRLCR [N21R] | 2.31 |
| ICPICLEMFTKPVVILPCQHMLCR [N21M] | 2.29 |
| ICPICLEMFTKPVVILPCQHPLCR [N21P] | 2.52 |
| ICPICLEMFTKPVVILPCQHCLCR [N21C] | 2.2 |
| ICPICLEMFTKPVVILPCQHDLCR [N21D] | 2.23 |
| ICPICLEMFTKPVVILPCQHFLCR [N21F] | 2.53 |

| Variant | protein stability index |
| --- | --- |
| ICPICLEMFTKPVVILPCQHWLCR [N21W] | 2.19 |
| ICPICLEMFTKPVVILPCQHELCR [N21E] | 2.54 |
| ICPICLEMFTKPVVILPCQHSLCR [N21S] | 2.93 |
| ICPICLEMFTKPVVILPCQLNLCR [H20L] | 1.91 |
| ICPICLEMFTKPVVILPCQNNLCR [H20N] | 1.88 |
| ICPICLEMFTKPVVILPCQINLCR [H20I] | 1.45 |
| ICPICLEMFTKPVVILPCQGNLCR [H20G] | 2.08 |
| ICPICLEMFTKPVVILPCQFNLCR [H20F] | 2.77 |
| ICPICLEMFTKPVVILPCQSNLCR [H20S] | 2.12 |
| ICPICLEMFTKPVVILPCQYNLCR [H20Y] | 1.52 |
| ICPICLEMFTKPVVILPCQRNLCR [H20R] | 1.45 |
| ICPICLEMFTKPVVILPCQWNLCR [H20W] | 1.27 |
| ICPICLEMFTKPVVILPCQANLCR [H20A] | 2.22 |
| ICPICLEMFTKPVVILPCQENLCR [H20E] | 1.68 |
| ICPICLEMFTKPVVILPCQDNLCR [H20D] | 2.14 |
| ICPICLEMFTKPVVILPCQVNLCR [H20V] | 1.34 |
| ICPICLEMFTKPVVILPCQQNLCR [H20Q] | 2.2 |
| ICPICLEMFTKPVVILPCQPNLCR [H20P] | 2.23 |
| ICPICLEMFTKPVVILPCQKNLCR [H20K] | 1.87 |
| ICPICLEMFTKPVVILPCQTNLCR [H20T] | 1.54 |
| ICPICLEMFTKPVVILPCQMNLCR [H20M] | 1.54 |
| ICPICLEMFTKPVVILPCQCNLCR [H20C] | 2.23 |

Reference: the supplement of paper PMC10567573
